# Reference: patent US5847076A, “Regulators of the proteasome” (Board of Regents, The University of Texas System, priority 1993, dated 1998)
# Ends that are not written are not given here.
# B1: PI31: inhibitor protein of the proteasome purified from bovine red blood cells, Mr=31,000 subunit (protein, UniProt Q3SX30 2-270, looked up)
# Proteasome inhibitor PI31 …: AGLEVLFASAAPAITCAQDALVCFLHWEVVTHGYYGLGAGDQPGPNDKKSELLPVEWNSNKDLYVLRYESKDGSRKLLVKAVTVENSMIINVLEHGSQQVSDLTLNLNDYIDSEHLVDFHRVYKNSEELRSRIVSGIITPIHEQWEKANLSPHREFPPATAREVDPLRIHPQHPHTSRQPTWCDPLGPFAVGGEDLDPFGCRRGGMIVDPLRSGFPRALIDPSSGLPNRLPPGAVPPGARFDPFGPIGTSPSGPNPDHLPPPGYDDMYL
# How the values were obtained:
# [1] = target: T1, proteasome activation by PA700; assay: Inhibition of proteasome activation by PA700 by C18 peptide; assay type: biochemical; conditions: for inhibition of proteasome activation by PA700: FIG. 27; for effect of peptide alone on proteasome activity: no activator
# T1 construct: from tissue
# Procedure: Activation of the proteasome by PA700 was performed in the presence of the indicated concentrations of purified C18 peptide.
# (§1) Therefore, this peptide or a compound with similar properties may be used to block the action of the proteasome in intact cells. Such a compound or analogs having similar binding activity may be used to control accelerated rates of intracellular protein degradation. The peptide has the sequence: Acetyl-KNFEKLKKPRGETKGMIY (SEQ ID NO. 3). The N-terminal lysine may be acetylated if needed for stability. […] Therefore, the C-terminal Ile-Tyr amino acids or their functional equivalents appear to be important for binding of the 18-mer to the proteasome and for inhibition of the activation of the proteasome by activating factors PA28 and PA700. An equivalent of the 18-mer may comprise less than 18 amino acids or may comprise functionally equivalent amino acid replacements which allow similar binding activity.
# proteasome = target: T2, proteasome; assay: Binding of PA28 carboxy-terminal peptides to the proteasome
# T2 construct: from tissue
# Description: as §1
# [2] = target: T3, proteasome activation by PA28; assay: Inhibition of PA28-activated proteasome by carboxy-terminal peptide; assay type: biochemical; conditions: for inhibition of proteasome activation by PA28: 0.5 μg proteasome, 1 μg PA28 (FIG. 26)
# T3 construct: from tissue
# Procedure: Proteasome activity in the absence of PA28 was 1.2 units/assays. Assays contained 0.5 μg of proteasome and 1 μg of PA28.
# as §1
# [3] = system: proteasome (latent and active forms); conditions: cited from earlier work
# [4] = listed as 18 amino acid peptide
molecule,measurement,setting,value
"Acetyl-KNFEKLKKPRGETKGMIY (Ac-KNFEKLKKPRGETKGMIY) [C18, 18 amino acid peptide corresponding to the carboxyterminal 18 amino acids of PA28]",inhibition of proteasome activation by PA700,[1],competitively inhibits proteasome activation by PA700
same,inhibition of proteasome activation by PA700,[1]; [4],"competitively inhibits the binding and activation of proteasome activator, PA700"
same,effect of peptide alone on proteasome activity,[1],had no effect on baseline proteasome activity
same,effect of peptide alone on proteasome activity,[1]; [4],does not activate the proteasome
same,binding to the proteasome,proteasome,does bind to it
same,inhibition of proteasome activation by PA28,[2],inhibition of PA28-activated proteasome
same,inhibition of proteasome activation by PA28,[2]; [4],competitively inhibits binding and activation of PA28
Ile-Tyr,activity of the dipeptide by itself,[2]; kind of activity not specified further,very weak activity
B1,inhibition of peptidase and protease activities of the proteasome,[3],inhibited all of the peptidase and protease activities of both the latent and active forms of the proteasome by a non-competitive mechanism
